B1: GAL4 transactivation domain fusion of AtDPa 42-142 (prey in pAD-GAL424) (other, not shown: large carriers)
chain: EKKGQSRTSGGGLRQFSVMVCQKLEAKKITTYKEVADEIISDFATIKQNAEKPLNENEYNEKNIRRRVYDALNVFMALDIIARDKKEIRWKGLPITCKKDV
B2: GAL4 transactivation domain fusion of AtDPa 172-292 (prey in pAD-GAL424) (other, not shown: large carriers)
chain: SLESLMSRNQEMVVKTQGPAEGFTLPFILLETNPHAVVEIEISEDMQLVHLDFNSTPFSVHDDAYILKLMQEQKQEQNRVSSSSSTHHQSQHSSAHSSSSSCIASGTSGPVCWNSGSIDTR
B3: GAL4 transactivation domain fusion of AtDPa 1-142 (prey in pAD-GAL424) (other, not shown: large carriers)
chain: MSMEMELFVTPEKQRQHPSVSVEKTPVRRKLIVDDDSEIGSEKKGQSRTSGGGLRQFSVMVCQKLEAKKITTYKEVADEIISDFATIKQNAEKPLNENEYNEKNIRRRVYDALNVFMALDIIARDKKEIRWKGLPITCKKDV
B4: GAL4 transactivation domain fusion of AtDPb 1-193 (prey in pAD-GAL424) (other, not shown: large carriers)
chain: MTTTGSNSNHNHHESNNNNNNPSTRSWGTAVSGQSVSTSGSMGSPSSRSEQTITVVTSTSDTTFQRLNNLDIQGDDAGSQGASGVKKKKRGQRAAGPDKTGRGLRQFSMKVCEKVESKGRTTYNEVADELVAEFALPNNDGTSPDQQQYDEKNIRRRVYDALNVLMAMDIISKDKKEIQWRGLPRTSLSDIEE
B5: GAL4 transactivation domain fusion of AtDPa 121-213 (prey in pAD-GAL424) (other, not shown: large carriers)
chain: IIARDKKEIRWKGLPITCKKDVEEVKMDRNKVMSSVQKKAAFLKELREKVSSLESLMSRNQEMVVKTQGPAEGFTLPFILLETNPHAVVEIEI
B6: GAL4 transactivation domain fusion of AtDPa 1-292 (prey in pAD-GAL424) (other, not shown: large carriers)
chain: MSMEMELFVTPEKQRQHPSVSVEKTPVRRKLIVDDDSEIGSEKKGQSRTSGGGLRQFSVMVCQKLEAKKITTYKEVADEIISDFATIKQNAEKPLNENEYNEKNIRRRVYDALNVFMALDIIARDKKEIRWKGLPITCKKDVEEVKMDRNKVMSSVQKKAAFLKELREKVSSLESLMSRNQEMVVKTQGPAEGFTLPFILLETNPHAVVEIEISEDMQLVHLDFNSTPFSVHDDAYILKLMQEQKQEQNRVSSSSSTHHQSQHSSAHSSSSSCIASGTSGPVCWNSGSIDTR
notes: also called full-length AtDPa prey
B7: GAL4 transactivation domain fusion of AtDPa 42-292 (prey in pAD-GAL424) (other, not shown: large carriers)
chain: EKKGQSRTSGGGLRQFSVMVCQKLEAKKITTYKEVADEIISDFATIKQNAEKPLNENEYNEKNIRRRVYDALNVFMALDIIARDKKEIRWKGLPITCKKDVEEVKMDRNKVMSSVQKKAAFLKELREKVSSLESLMSRNQEMVVKTQGPAEGFTLPFILLETNPHAVVEIEISEDMQLVHLDFNSTPFSVHDDAYILKLMQEQKQEQNRVSSSSSTHHQSQHSSAHSSSSSCIASGTSGPVCWNSGSIDTR
B8: GAL4 transactivation domain fusion of AtDPb 182-263 (prey in pAD-GAL424) (other, not shown: large carriers)
chain: GLPRTSLSDIEELKNERLSLRNRIEKKTAYSQELEEQYVGLQNLIQRNEHLYSSGNAPSGGVALPFILVQTRPHATVEVEI
B9: GAL4 transactivation domain fusion of AtDPb 182-385 (prey in pAD-GAL424) (other, not shown: large carriers)
chain: GLPRTSLSDIEELKNERLSLRNRIEKKTAYSQELEEQYVGLQNLIQRNEHLYSSGNAPSGGVALPFILVQTRPHATVEVEISEDMQLVHFDFNSTPFELHDDNFVLKTMKFCDQPPQQPNGRNNSQLVCHNFTPENPNKGPSTGPTPQLDMYETHLQSQQHQQHSQLQIIPMPETNNVTSSADTAPVKSPSLPGIMNSSMKPEN
B10: GAL4 transactivation domain fusion of AtDPa 121-292 (prey in pAD-GAL424) (other, not shown: large carriers)
chain: IIARDKKEIRWKGLPITCKKDVEEVKMDRNKVMSSVQKKAAFLKELREKVSSLESLMSRNQEMVVKTQGPAEGFTLPFILLETNPHAVVEIEISEDMQLVHLDFNSTPFSVHDDAYILKLMQEQKQEQNRVSSSSSTHHQSQHSSAHSSSSSCIASGTSGPVCWNSGSIDTR
B11: c-myc-tagged AtDPb 1-193, in vitro translated (other)
chain: EQKLISEEDLEQKLISEEDLMTTTGSNSNHNHHESNNNNNNPSTRSWGTAVSGQSVSTSGSMGSPSSRSEQTITVVTSTSDTTFQRLNNLDIQGDDAGSQGASGVKKKKRGQRAAGPDKTGRGLRQFSMKVCEKVESKGRTTYNEVADELVAEFALPNNDGTSPDQQQYDEKNIRRRVYDALNVLMAMDIISKDKKEIQWRGLPRTSLSDIEE
notes: also called c-myc-AtDPb 1-193
B12: c-myc-tagged AtDPa 1-142, in vitro translated (other)
chain: EQKLISEEDLEQKLISEEDLMSMEMELFVTPEKQRQHPSVSVEKTPVRRKLIVDDDSEIGSEKKGQSRTSGGGLRQFSVMVCQKLEAKKITTYKEVADEIISDFATIKQNAEKPLNENEYNEKNIRRRVYDALNVFMALDIIARDKKEIRWKGLPITCKKDV
notes: also called c-myc-AtDPa 1-142

What follows are binders tested against T1, pGBTE2Fb-Rb: GAL4 DNA-binding domain fusion of AtE2Fb amino acids 1-385 (lacking the Rb-binding domain) (Arabidopsis) (assay: yeast two-hybrid, growth on His- minimal medium; legend: -, no interaction).
T1 construct: also called E2F3 N-terminal; E2Fb (=E2F3) N-terminal domain

Does B1 bind?
Result: no binding

Does B2 bind?
Result: no binding

Does B3 bind?
Result: no binding

Does B4 bind?
Result: no binding

Does B5 bind?
Result: no binding

Each binder was assayed against T2, pGBTE2Fa226-356: GAL4 DNA-binding domain fusion of AtE2Fa amino acids 226-356 (Arabidopsis) in the same assay as above.
T2 construct: also called E2F5 dimerisation domain; E2Fa (=E2F5) dimerization domain

Does B1 bind?
Result: no binding

Does B2 bind?
Result: no binding

Does B3 bind?
Result: no binding

Does B4 bind?
Result: no binding

Does B5 bind?
Result: no binding

The binders below were run against T3, pGBT DPa 1-292: GAL4 DNA-binding domain fusion of AtDPa 1-292 (Arabidopsis thaliana) in the same assay as above.
T3 construct: its construction is not described

Does B6 bind?
Result: no binding

Each binder was assayed against T1, pGBTE2Fb-Rb: GAL4 DNA-binding domain … (assay: yeast two-hybrid, growth on His- minimal medium; legend: +, positive interaction).
Description: (§1) Different combinations between bait (pGBTE2Fa226-356, pGBTE2Fb-Rb, or pGBTE2Fb 1-127, SEQ ID NO:207) and prey constructs were transformed into yeast cells and assayed for their ability to grow on His⁻ minimal media after 3 days of incubation at 30° C. Bait plasmids co-transformed with empty pAD-GAL424 and prey plasmids co-transformed with empty pGBT9 were assessed along as controls for the specificity of the interaction.
(§2) Different combinations between AtE2Fs bait and AtDPs prey constructs were tested for growth on His minimal media. −, no interaction; +, positive interaction; NT, not tested.

Does B6 bind?
Result: binds

Does B7 bind?
Result: binds

Does B8 bind?
Result: binds

Does B9 bind?
Result: binds

Does B10 bind?
Result: binds

These binders were tested against T2, pGBTE2Fa226-356: GAL4 DNA-binding … in the same assay as above.
Description: as §1, §2

Does B7 bind?
Result: binds

Does B8 bind?
Result: binds

Does B9 bind?
Result: binds

Does B10 bind?
Result: binds

These binders were tested against T4, HA-tagged wild-type AtE2Fb, in vitro translated (Arabidopsis, UniProt Q9FV71 1-469) (assay: co-immunoprecipitation (anti-c-myc) of in vitro co-translated tagged proteins, SDS-PAGE autoradiography).
T4 construct: wild-type (whole) protein; also called HA-AtE2Fb; E2F3
T4 sequence (Q9FV71 1-469, tags or fused parts left off): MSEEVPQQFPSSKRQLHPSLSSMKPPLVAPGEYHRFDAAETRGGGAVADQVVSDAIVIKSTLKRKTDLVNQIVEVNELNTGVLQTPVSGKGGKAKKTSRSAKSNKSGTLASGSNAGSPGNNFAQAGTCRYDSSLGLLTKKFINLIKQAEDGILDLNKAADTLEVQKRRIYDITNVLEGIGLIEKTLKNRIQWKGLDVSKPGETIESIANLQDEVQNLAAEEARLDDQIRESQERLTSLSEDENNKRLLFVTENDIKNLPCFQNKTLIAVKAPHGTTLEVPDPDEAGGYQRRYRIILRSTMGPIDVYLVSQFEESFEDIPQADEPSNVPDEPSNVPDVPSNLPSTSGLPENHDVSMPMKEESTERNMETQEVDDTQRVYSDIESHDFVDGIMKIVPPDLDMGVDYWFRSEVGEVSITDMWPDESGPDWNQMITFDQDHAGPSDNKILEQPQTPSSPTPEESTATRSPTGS
Description: In vitro transcription and translation experiments were performed using the TNT T7-coupled wheat germ extract kit (Promega) primed with appropriate plasmids for 90 min at 30° C. For immunoprecipitation, 10 μl of the total in vitro translated extract (50 μl) was diluted at 1:5 in Nonidet P40 buffer (50 mM Tris, pH 7.4, 150 mM NaCl, 1% Nonidet P40, 1 mM phenylmethylsulfonyl fluoride, 10 μg/ml leupeptin/aprotinin/pepstatin) and incubated for 2 h at 4° C. with anti-c-myc (9E10; BabCo) or anti-HA (16B12; BabCo) antibodies. Protein-A-Sepharose (40 μl 25% (v/v)) was added and incubated for 1 h at 4° C., then the beads were washed four times with Nonidet P40 buffer. Immune complexes were eluted with 10 μl […] sodium dodecyl sulfate (SDS) sample buffer and analyzed by 10% or 15% SDS-PAGE and by autoradiography.
Similar results were obtained by two-hybrid analysis (see Table 5 of Example 12). To test whether the structural requirements for heterodimerization of the AtDPs were similar to those of their animal homologs, several deletion mutants of AtDPa and AtDPb were constructed (for a schematic illustration, see FIGS. 52 and 53), tagged with the c-myc epitope (FIGS. 54 and 55, panels A). The interactions between the mutant AtDPs and AtE2Fb were analyzed in immunoprecipitation experiments with the specific anti-HA or anti-c-myc antibodies ([…], panels B and C, respectively). […]

Does B11 bind?
Result: no binding

Does B12 bind?
Result: no binding

What follows are binders tested against T5, empty pGBT9 (GAL4 DNA-binding domain alone) (UniProt P04386 1-147) (assay: yeast two-hybrid, growth on His- minimal medium; empty bait vector control; legend: -, no interaction).
T5 construct: empty bait vector, control for specificity; also called pBGT9
Description: as §1, §2

Does B1 bind?
Result: no binding

Does B2 bind?
Result: no binding

Does B8 bind?
Result: no binding

Does B3 bind?
Result: no binding

Does B5 bind?
Result: no binding
